One may read the Kd as the constant that tells how readily two partners part at equilibrium. Read a high Kd as a looser complex.

This passage reports Kd results from PMC3271085, “Enhancement of Chemokine Function as an Immunomodulatory Strategy Employed by Human Herpesviruses” (PLoS Pathogens, 2012).

B1: human CCL18 (ligand)
chain: AQVGTNKELCCLVYTSWQIPQKFIVDYSETSPQCPKPGVILLTKRGRQICADPNKKWVQKYISDLKLNA
notes: also called hCCL18; source: commercially available (Protocol S2)
B2: human CXCL9 (ligand)
chain: TPVVRKGRCSCISTNQGTIHLQSLKDLKQFAPSPSCEKIEIIATLKNGVQTCLNPDSADVKELIKKWEKQVSQKKKQKNGKKHQKKKVLKVRKSQRSRQKKTT
notes: also called hCXCL9; source: commercially available (Protocol S2)
B3: human CXCL13 (ligand)
chain: VLEVYYTSLRCRCVQESSVFIPRRFIDRIQILPRGNGCPRKEIIVWKKNKSIVCVDPQAEWIQRMMEVLRKRSSSTLPVPVFKRKIP
notes: also called hCXCL13; source: commercially available (Protocol S2)
B4: human CCL28 (ligand)
chain: SEAILPIASSCCTEVSHHISRRLLERVNMCRIQRADGDCDLAAVILHVKRRRICVSPHNHTVKQWMKVQAAKKNGKGNVCHRKKHHGKRNSNRAHQGKHETYGHKTPY
notes: also called hCCL28; source: commercially available (Protocol S2)
B5: human CCL22 (ligand)
chain: GPYGANMEDSVCCRDYVRYRLPLRVVKHFYWTSDSCPRPGVVLLTFRDKEICADPRVPWVKMILNKLSQ
B6: human CXCL11 (ligand)
chain: FPMFKRGRCLCIGPGVKAVKVADIEKASIMYPSNNCDKIEVIITLKENKGQRCLNPKSKQARLIIKKVERKNF
notes: also called hCXCL11; source: commercially available (Protocol S2)
B7: human CXCL14 (ligand)
chain: SKCKCSRKGPKIRYSDVKKLEMKPKYPHCEEKMVIITTKSVSRYRGQEHCLHPKLQSTKRFIKWYNAWNEKRRVYEE
notes: also called hCXCL14; source: commercially available (Protocol S2)

soluble, secreted form of HSV-2 glycoprotein G (SgG2) (herpes simplex virus type 2), sequence (P13290 23-699): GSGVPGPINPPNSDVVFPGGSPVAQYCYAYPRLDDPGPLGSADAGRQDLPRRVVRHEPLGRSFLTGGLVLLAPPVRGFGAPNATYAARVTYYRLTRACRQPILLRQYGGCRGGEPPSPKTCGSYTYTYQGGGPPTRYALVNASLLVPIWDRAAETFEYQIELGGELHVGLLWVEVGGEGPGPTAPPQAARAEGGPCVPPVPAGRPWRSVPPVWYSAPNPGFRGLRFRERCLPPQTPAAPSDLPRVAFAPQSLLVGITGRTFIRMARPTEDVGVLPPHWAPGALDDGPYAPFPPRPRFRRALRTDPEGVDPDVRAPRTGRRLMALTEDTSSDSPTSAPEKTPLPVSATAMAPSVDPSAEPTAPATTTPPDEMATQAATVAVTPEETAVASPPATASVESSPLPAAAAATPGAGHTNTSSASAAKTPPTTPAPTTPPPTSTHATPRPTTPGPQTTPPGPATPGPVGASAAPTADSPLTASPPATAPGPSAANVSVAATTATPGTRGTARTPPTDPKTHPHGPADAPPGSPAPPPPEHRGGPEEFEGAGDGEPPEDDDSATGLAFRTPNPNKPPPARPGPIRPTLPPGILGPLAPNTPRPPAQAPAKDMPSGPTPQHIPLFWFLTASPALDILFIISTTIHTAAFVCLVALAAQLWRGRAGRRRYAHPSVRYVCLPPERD

This experiment has as its target soluble, secreted form of HSV-2 glycoprotein G (SgG2) (herpes simplex virus type 2) (UniProt P13290). The experiment in a line: SPR; Biacore X; SgG1 or SgG2 amine-coupled to CM5 chips (dialysed against acetate buffer pH 5.0 for SgG1, pH 5.5 for SgG2); chemokines injected; screening at 100 nM and kinetic conditions as in ref. 16; Biaevaluation 3.2.
Turning to “human CXCL10 (from UniProt P02778 22-98) (ligand)”, the Kd amounted to 5.5 nM.
The figure for “human CCL26 (from UniProt Q9Y258 24-94) (ligand)” is 1.72 nM; for “human CCL25 (from UniProt O15444 24-150) (ligand)” it is 1.6 nM.
Turning to “human CXCL12β (from UniProt P48061 22-93) (ligand)”, the Kd was determined as 2.2 nM.
In turn, B1 yielded a Kd of 28 nM.
The result for B2 reads 12.3 nM; that for B3, 4.3 nM.
The result for B4 reads 3.2 nM; that for B5, 5.22 nM; that for B6, 6 nM.
The molecule B7 showed a Kd of 4.3 nM.
